Where two headings read alike, the source gives them in different places.
T1: human OX40 expressed on cells (293T-OX40, Jurkat-OX40) (human, UniProt P43489 29-277)
T1 sequence (looked up): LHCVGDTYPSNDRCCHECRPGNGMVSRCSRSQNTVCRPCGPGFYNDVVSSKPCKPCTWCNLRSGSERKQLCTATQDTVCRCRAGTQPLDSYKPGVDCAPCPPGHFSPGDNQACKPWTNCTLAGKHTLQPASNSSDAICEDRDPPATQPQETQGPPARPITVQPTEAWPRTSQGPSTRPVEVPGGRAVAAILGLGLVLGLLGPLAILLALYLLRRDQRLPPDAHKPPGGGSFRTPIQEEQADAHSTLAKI

T2: OX40-ECD-hFc (human, UniProt P43489 29-214)
T2 construct: extracellular domain; Coated on the ELISA plate; also called OX40-hFc protein; not shown: human Fc (hFc)
T2 sequence (looked up): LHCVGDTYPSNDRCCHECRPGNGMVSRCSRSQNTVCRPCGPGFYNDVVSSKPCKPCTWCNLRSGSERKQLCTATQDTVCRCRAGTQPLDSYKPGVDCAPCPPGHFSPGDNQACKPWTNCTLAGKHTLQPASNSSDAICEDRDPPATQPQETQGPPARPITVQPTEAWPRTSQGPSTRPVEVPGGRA


Legend:
[1] = target: T1, human OX40 expressed on cells …; test: cell-based or functional assay
[2] = target: T1, human OX40 expressed on cells …; test: FACS on 293T-OX40 cells
Procedure: (§1) (3) FACS Screening for Antibodies Binding to OX40-ECD. 50 μL of the hybridoma supernatant tested positive in the ELISA tests was pipetted and mixed with 50 μL of 293T-OX40 cells (1×10⁵ cells/well), and the mixture was added to a 96-well plate with a U-shaped bottom and incubated for 1 hour. After the mixture was centrifuged and washed twice with FACS buffer (PBS+3% FCS), PE-labeled goat anti-mouse secondary antibody (Biolegend, Cat. No.: 405307) diluted at 1:400 was added, the mixture was incubated for 30 minutes, and washed with FACS buffer, and then PE signal of 293T-OX40 cells was detected using a BD C6 flow cytometer.
(§2) The activity of the purified antibody sample to bind OX40 and block the binding of OX40 to OX40L was tested via ELISA and FACS. Specific methods are described in steps (2), (3) and (4) in Example 1. 6 monoclonal OX40 hybridoma antibodies 1G2, 3G4, 9G7, 177G5, 118A10 and 119H2 were tested. Test results are shown in Table 1 to Table 3 and FIGS. 1 to 3.

[3] = target: T2, OX40-ECD-hFc; test: ELISA, OX40-ECD-hFc coated on plate
Procedure: (2) ELISA Screening for Antibodies Binding to OX40-ECD. 96-well ELISA plate (Corning, Cat. No.: 9018) was inoculated with OX40-ECD-hFc, left at 4° C. overnight, and washed 3 times with wash buffer (PBS+0.05% Tween 20), then blocking buffer (PBS+1% BSA (Sigma, Cat. No.: V90093)) was added, and the 96-well ELISA plate was incubated for 1 hour and washed 3 times; hybridoma supernatant was added, the 96-well ELISA plate was incubated for 1 hour and washed 3 times; and 100 μL of goat anti-mouse IgG secondary antibody (Thermo, Cat. No.: 31432) diluted at 1:10000 was added to each well, and the 96-well ELISA plate was incubated at room temperature for 1 hour and washed 3 times. 100 µL of TMB (Biosubstrate Technologies, Cat. No.: ES-002) was added to each well and left for 3 minutes for color development, then a stop solution (2N H₂SO₄) was added at a dose of 100 μL/well to terminate the reaction, and the OD450 signal of each sample was measured with a Tecan Spark microplate reader.
as §2

[4] = target: T1, human OX40 expressed on cells …; test: cell-based or functional assay; remark: listed apart in the source
[5] = target: T1, human OX40 expressed on cells …; test: cell-based or functional assay; remark: listed apart in the source
[6] = target: T1, human OX40 expressed on cells …; test: FACS on 293T-OX40 cells; remark: listed apart in the source
Procedure: as §1
Purified humanized antibody samples were tested for their binding to OX40 using FACS and for their ability to block the OX40L/OX40 signaling pathway using a reporter gene assay. The specific methods are referenced from Example 1. The results are shown in Table 6, Table 7, FIG. 7 and FIG. 8. The effects of the humanized antibodies on the function of primary T cells were tested, including an MLR response test of the inhibitory effect of the OX40 humanized antibody on the proliferation of CD4+ T cells, and a test of the inhibitory effect of the OX40 humanized antibody on the proliferation of CD8+ T cells induced by CEF.

Binder | IC50 of reporter gene assay (NF-kB-luciferase, Jurkat-OX40 cells + OX40L) [1] [ng/mL] | EC50 [2] [µg/mL] | EC50 [3] [µg/mL] | IC50 of reporter gene assay (NF-kB-luciferase, Jurkat-OX40 cells + OX40L) [4] [ng/mL] | EC50 of ADCC activity (LDH release, Jurkat-OX40 target cells + PBMC) [5] [ng/mL] | EC50 [6] [µg/mL]
murine OX40 hybridoma antibody 1G2 (antibody, V domains shown, Purified murine monoclonal hybridoma antibody) VH: EVQLQQSGPDLVKPGASVKMSCKASGYRFTSYVMHWVKQRPGQGLEWIGYINPYNDNTRYNEKFKGKATLTSDKSSSTAYMELSSLTSEDSAVYYCAAYYGDYVYLDYWGQGTTLTVSS VL: DIQMTQTTSSLSASLGDRVTISCRASQDINNYLNWYQQKPDGTVKLLIYYTSRLHSGVPSRFSGSGSGTDYSLIISNLEQEDIATYFCQQGNTLPWTFGGGTKLEIKR | 117 | 0.0805 | 0.0157 |  |  | 
humanized anti-OX40 antibody hu3G4-DE (antibody, V domains shown, Constructed as human IgG1 with constant region Ser239, Ala330 and Ile332 mutated to Asp, Leu and Glu; also called humanized antibody 3G4; combination B') VH: QVQLVQSGAEVKKPGASVKVSCKASGYRFTSYVLHWVRQAPGQRLEWIGYVNPFNDNTRYNEKFKARATLTSDKSASTAYMELSSLRSEDTAVYYCSRGLYDYSYVMDYWGQGTLVTVSS VL: DIQMTQSPSSLSASVGDRVTITCQASQDIRNYLNWYQQKPGKAPKLLIYHTSKLHSGVPSRFSGSGSGTDFTFTISSLQPEDIATYYCQQSNTLPYTFGQGTKLEIK |  |  |  | 18.1 | 1.52 | 0.0713
humanized anti-OX40 antibody hu9G7-DE (antibody, V domains shown, Constructed as human IgG1 with constant region Ser239, Ala330 and Ile332 mutated to Asp, Leu and Glu; also called humanized antibody 9G7; combination C') VH: EVQLVESGGGLVQPGGSLRLSCAASGFTFSDYYMYWVRQAPGKGLEWVAYISNGDISTYYPDTVKGRFTISRDNAKNSLYLQMNSLRAEDTAVYYCARDDGYSAWFAYWGQGTTVTVSS VL: DIVMTQSPDSLAVSLGERATINCKSSQSLLNSSNQKNYLAWYQQKPGQPPKLLVYFASTRESGVPDRFSGSGSGTDFTLTISSLQAEDVAVYYCQQHYYTPFTFGQGTKLEIK |  |  |  | 57.5 | 1.43 | 0.0623
humanized anti-OX40 antibody hu177G5-DE (antibody, V domains shown, Constructed as human IgG1 with constant region Ser239, Ala330 and Ile332 mutated to Asp, Leu and Glu; also called humanized antibody 177G5; combination D') VH: QVQLVESGGGLVKPGGSLRLSCAASGFTFSDFYMYWIRQAPGKGLEWVATISDGGSYTYYPDIVKGRFTISRDNAKNSLNLQMNSLRAEDTAVYYCTTKNGNHIGFAYWGQGTTVTVSS VL: DIQMTQSPSSLSASVGDRVTITCRASENIYSNLAWYQQKPGKAPKLLVYAATNLADGVPSRFSGSGSGTDYTLTISSLQPEDFATYYCQHFWGIPWTFGGGTKVEIK |  |  |  | 309 | 2.36 | 0.096
murine OX40 hybridoma antibody 3G4 (antibody, V domains shown, Purified murine monoclonal hybridoma antibody) VH: EVQLQQSGPELVKPGTSVKMSCKASGYRFTSYVLHWVRRKPGQGLEWIGYVNPFNDNTRYNEKFKAKATLTSDKSSSTAYMDLVSLTSEDSAVYYCSRGLYDYSYVMDYWGQGTSVTVSS VL: DIQMTQTTSSLSASLGDGVTITCQASQDIRNYLNWYQQKPDGTIKLLIYHTSKLHSGVPSRFSGGGSGTDFSLTISNLDQEDIATYFCQQSQTLPYTFGGGTKLEIKR | 36.1 | 0.0537 | 0.0163 |  |  | 
murine OX40 hybridoma antibody 9G7 (antibody, V domains shown, Purified murine monoclonal hybridoma antibody) VH: EVKLVESGGGLVQPGGSLKLSCAASGFTFSDYYMYWVRQTPEKRLEWVAYISNGDISTYYPDTVKGRFTISRDNAKNTLYLQMSRLKSEDTAMYYCARDDGYSAWFAYWGQGTLVTVSA VL: not shown | ~36.1 | 0.0369 | 0.0198 |  |  | 
murine OX40 hybridoma antibody 177G5 (antibody, V domains shown, Purified murine monoclonal hybridoma antibody) VH: EVQLVESGGGLVKPGGSLKLSCAASGFTFSDFYMYWVRQTPEKRLEWVATISDGGSYTYYPDIVKGRFTISRDNAKNNLNLQMSSLKSDDTAMYYCTTKNGNHIGFAYWGQGTLVTVSA VL: DIQMTQSPASLSVSVGETVTITCRASENIYSNLAWYQQKQGKSPQLLVYAATNLADGVPSRFSGSGSGTQYSLKINSLQSEDFGSYYCQHFWGIPWTFGGGTKLEIKR | 253 | 0.0499 | 0.0215 |  |  | 
murine OX40 hybridoma antibody 118A10 (antibody, V domains shown, Purified murine monoclonal hybridoma antibody) VH: EVKLDETGGGLVQPGRPMKLSCVASGFTFSDYWLNWVRQSPEKGLEWVAQIRNKPYHYETFYSESVKGRFTISRDDSKSSVYLQMNDLRGEDTGIYYCTGYFDYWGQGTTLTVSS VL: DIVLTQSPASLTISLGQRATISCRASQSVSTSTYSYIHWYQQKPGQPPRLLIKYASNLESGVPARFSGSGSGTDFTLNIHPVEEEDTATYYCQHSWGIPPTFGGGTKLEIKR | 198 | 0.0735 | 0.0249 |  |  | 
murine OX40 hybridoma antibody 119H2 (antibody, V domains shown, Purified murine monoclonal hybridoma antibody) VH: EVKLDATGGGLVQPGRPMKLSCVASGFTFSDYWMNWVRQSPEKGLEWVAQIRNKPYNYETFYSDSVKGRFTISRDDSKSSVYLQMNNLRAEDMGIYYCTGYFDYWGQGTTLTVSS VL: DIVLTQSPASLAVSLGQRATISCRASQSVSTSSYSYMHWYQQKPGQPPKLLIKYASNLESGVPARFSGSGSGTDFTLNIHPVEEEDTATYYCQHSWGIPPTFGGGTKLEIKR | 179 | 0.0413 | 0.023 |  |  | 
